These results are taken from paper PMC4425898, “High yield purification of Helicobacter pylori neutrophil-activating protein overexpressed in Escherichia coli” (BMC Biotechnology, 2015).

This data set concerns the molecule itself. The experiment in a line: native gel or EMSA; native-PAGE (10% acrylamide) of load, unbound, wash and elution fractions of DEAE Sephadex and DEAE Sepharose batch chromatography; 20 mM Tris-HCl, pH 7.0 to 9.0, 50 mM NaCl (1 M NaCl for elution), 4°C. (In general: A gel shift assay detects complexes by their altered migration in electrophoresis.)

B1: Helicobacter pylori neutrophil-activating protein (natural protein)
chain: MKTFEILKHLQADAIVLFMKVHNFHWNVKGTDFFNVHKATEEIYEEFADMFDDLAERIVQLGHHPLVTLSEAIKLTRVKEETKTSFHSKDIFKEILEDYKYLEKEFKELSNTAEKEGDKVTVTYADDQLAKLQKSIWMLQAHLA
notes: subunit of about 17 kDa on SDS-PAGE; No tag is named; its own experiments show only an oligomer; also called HP-NAP; recombinant HP-NAP; source: E. coli BL21(DE3), plasmid pET42a-NAP; copies: 12
B1: the binding result is recorded as “binds”.
